Laboratory results taken from paper PMC7171158, “NusA directly interacts with antitermination factor Q from phage λ” (Scientific Reports, 2020).

Target: T1, NusA acidic repeat 2 domain (NusA-AR2) (E. coli, UniProt P0AFF6 426-495)
T1 construct: acidic repeat 2 domain (C-terminal domain) of E. coli NusA
Test: NMR titration; 2H,15N-NusA-SKK titrated with NusA-AR2 and 15N-NusA-AR2 titrated with NusA-SKK (up to 1:7.5); 5 mm tubes; 298 K; 50 mM MOPS pH 6.5, 100 mM NaCl, 150 mM D-glucose, 5 mM DTT; two-state fit of chemical shift changes
Settings: both partners purified

B1: NusA-SKK (S1, KH1 and KH2 domains of NusA) (domain or fragment)
chain: not shown
B1 showed a Kd of under 341 µM.
